Results taken from patent US20040253242A1.

Target: cMpl receptor (human (cloned from Tf-1 cells, a human cell line)) (UniProt P40238)
Assay: cell-based or functional assay

- Relative Fold Luciferase activity (c-Fos promoter), CMpl-R transfected NIH3T3 cells; +TPO: 2.32 fold
Substance: TPO (from UniProt P40225 22-353) (ligand)
